Results reported in the supplement of paper PMC9112550, “Optimization of the antimicrobial peptide Bac7 by deep mutational scanning” (BMC Biology, 2022).

Tested on: Escherichia coli TOP10
Assay: shrunken log2 fold change of peptide-encoding DNA abundance (4.5 h post-induction vs induction); higher = less antimicrobial activity (less host growth inhibition)
Conditions: time post-induction: 4.5 h; library: site-saturation at positions 5, 18, 19, 20
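Note: peptides expressed intracellularly from a pBAD plasmid library in pooled LB shake-flask culture, induced with 0.3% L-arabinose, DNA abundance read by NGS, three biological replicates, DESeq2 with apeglm shrinkage.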

Row | Sequence | shrunken log2 fold change
1 | RRIRARPPRLPRPRPRPEMNPRP | 0.655
2 | RRIRPRPPRLPRPRPRPQEIPRP | 0.017
3 | RRIRDRPPRLPRPRPRPSILPRP | 0.202
4 | RRIRERPPRLPRPRPRPWKFPRP | -0.301
5 | RRIRNRPPRLPRPRPRPSRAPRP | 0.121
6 | RRIRTRPPRLPRPRPRPLPSPRP | -0.0373
7 | RRIRARPPRLPRPRPRPNLLPRP | 0.00335
8 | RRIRVRPPRLPRPRPRPHYQPRP | -0.213
9 | RRIRCRPPRLPRPRPRPGDSPRP | -0.0113
10 | RRIRCRPPRLPRPRPRPKVQPRP | 0.0235
11 | RRIRRRPPRLPRPRPRPQPWPRP | 0.067
12 | RRIRARPPRLPRPRPRPTNYPRP | -0.137
13 | RRIRLRPPRLPRPRPRPSQKPRP | 0.00285
14 | RRIRRRPPRLPRPRPRPIIQPRP | -0.342
15 | RRIRQRPPRLPRPRPRPYTWPRP | -0.51
16 | RRIRHRPPRLPRPRPRPNRQPRP | -0.0122
17 | RRIRQRPPRLPRPRPRPRKCPRP | 0.158
18 | RRIRGRPPRLPRPRPRPERDPRP | 0.955
19 | RRIRRRPPRLPRPRPRPMFPPRP | 0.118
20 | RRIRQRPPRLPRPRPRPRQGPRP | 0.0279
21 | RRIRMRPPRLPRPRPRPQLRPRP | 0.357
22 | RRIRQRPPRLPRPRPRPYMPPRP | -0.0463
23 | RRIRARPPRLPRPRPRPAGAPRP | 1.16
24 | RRIRVRPPRLPRPRPRPGGHPRP | 0.13
25 | RRIRYRPPRLPRPRPRPDKFPRP | -0.116

Row | Sequence | shrunken log2 fold change
26 | RRIRPRPPRLPRPRPRPTTFPRP | -0.173
27 | RRIRIRPPRLPRPRPRPQHAPRP | 0.16
28 | RRIRWRPPRLPRPRPRPKMSPRP | 0.163
29 | RRIRIRPPRLPRPRPRPVQTPRP | -0.0646
30 | RRIRRRPPRLPRPRPRPLEEPRP | 0.597
31 | RRIRMRPPRLPRPRPRPNMSPRP | 0.0106
32 | RRIRRRPPRLPRPRPRPPIIPRP | 0.164
33 | RRIRGRPPRLPRPRPRPIFEPRP | 0.357
34 | RRIRWRPPRLPRPRPRPSFYPRP | -0.328
35 | RRIRRRPPRLPRPRPRPTMKPRP | 0.286
36 | RRIRNRPPRLPRPRPRPFSTPRP | -0.226
37 | RRIRKRPPRLPRPRPRPQNVPRP | -0.0694
38 | RRIRERPPRLPRPRPRPQLQPRP | -0.0648
39 | RRIRCRPPRLPRPRPRPPLDPRP | 0.616
40 | RRIRERPPRLPRPRPRPMNEPRP | -0.0835
41 | RRIRRRPPRLPRPRPRPHFHPRP | -0.217
42 | RRIRYRPPRLPRPRPRPVPEPRP | -0.294
43 | RRIRYRPPRLPRPRPRPVIAPRP | -0.354
44 | RRIRWRPPRLPRPRPRPPISPRP | 0.172
45 | RRIRWRPPRLPRPRPRPSGNPRP | -0.0162
46 | RRIRQRPPRLPRPRPRPVHIPRP | -0.1
47 | RRIRIRPPRLPRPRPRPYRQPRP | -0.326
48 | RRIRWRPPRLPRPRPRPNYCPRP | -0.113
49 | RRIRSRPPRLPRPRPRPIWGPRP | 0.0936
50 | RRIRERPPRLPRPRPRPIMKPRP | -0.376

Row | Sequence | shrunken log2 fold change
51 | RRIRRRPPRLPRPRPRPKKMPRP | 0.318
52 | RRIRIRPPRLPRPRPRPCQPPRP | -0.378
53 | RRIRERPPRLPRPRPRPTNGPRP | -0.163
54 | RRIRWRPPRLPRPRPRPRLAPRP | 0.84
55 | RRIRRRPPRLPRPRPRPEQWPRP | -0.173
56 | RRIRTRPPRLPRPRPRPNLLPRP | -0.245
57 | RRIRNRPPRLPRPRPRPDDIPRP | 0.0399
58 | RRIRLRPPRLPRPRPRPILQPRP | -0.129
59 | RRIRTRPPRLPRPRPRPIHKPRP | -0.281
60 | RRIRGRPPRLPRPRPRPPDVPRP | 0.0671
61 | RRIRIRPPRLPRPRPRPLNFPRP | -0.434
62 | RRIRFRPPRLPRPRPRPSINPRP | -0.625
63 | RRIRERPPRLPRPRPRPDVGPRP | -0.59
64 | RRIRVRPPRLPRPRPRPFQRPRP | 0.0825
65 | RRIRHRPPRLPRPRPRPWIGPRP | -0.0136
66 | RRIRPRPPRLPRPRPRPTCQPRP | -0.0775
67 | RRIRLRPPRLPRPRPRPPHYPRP | 0.0636
68 | RRIRRRPPRLPRPRPRPYYYPRP | -0.9
69 | RRIRGRPPRLPRPRPRPVGTPRP | 0.304
70 | RRIRERPPRLPRPRPRPAQRPRP | 0.324
71 | RRIRYRPPRLPRPRPRPKWYPRP | -0.884
72 | RRIRSRPPRLPRPRPRPWLSPRP | -0.00679
73 | RRIRSRPPRLPRPRPRPPTNPRP | 0.298
74 | RRIRQRPPRLPRPRPRPADYPRP | -0.155
75 | RRIRTRPPRLPRPRPRPDMRPRP | -0.025
